The target of data set [1] is heavy-chain (HC-) FSAP (residues 24-291) (human) (UniProt Q14520). Description: MST.
The data set “dynamic light scattering” deals with the molecule itself. Description: dynamic light scattering.

The source of these data is publication doi:10.1101/2025.01.07.631702 (bioRxiv, 2025).

A word on the Kd: it is the equilibrium constant for the complex coming apart. A lower Kd goes with a tighter complex. As to Histone-H1 (natural protein), in data set [1], the Kd was found to be 2000 nM.

B1: heavy-chain (HC-) FSAP (residues 24-291) (domain or fragment)
chain: FSLMSLLESLDPDWTPDQYDYSYEDYNQEENTSSTLTHAENPDWYYTEDQADPCQPNPCEHGGDCLVHGSTFTCSCLAPFSGNKCQKVQNTCKDNPCGRGQCLITQSPPYYRCVCKHPYTGPSCSQVVPVCRPNPCQNGATCSRHKRRSKFTCACPDQFKGKFCEIGSDDCYVGDGYSYRGKMNRTVNQHACLYWNSHLLLQENYNMFMEDAETHGIGEHNFCRNPDADEKPWCFIKVTNDKVKWEYCDVSACSAQDVAYPEESPTEP
modifications: labelled with the Monolith protein labelling kit RED-NHS (in the MST only)
As for B1, the binding result in the data set “dynamic light scattering” is “binds”.
